From patent US20260008815A1, “CYCLIC PEPTIDE OR SALT THEREOF, AND USES THEREOF” (FUJIFILM Corporation, priority 2023, published 2026)
Bridge positions count the residues as written; N and C are the ends. Ends that are not written are not given here. COCH2 = acetyl group that carries the bridge

Target: T1, Recombinant Human FGFR2 alpha (IIIc) Fc Chimera Protein, CF (R&D systems, 712-FR-050) (human, UniProt P21802 22-377)
T1 construct: bought; not shown: Fc part of the chimera
Test: ELISA on plate-bound FGFR2-Fc
Method in brief: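 Plate-immobilized FGFR2 alpha (IIIc)-Fc (5 ng/well) incubated with peptide 3 h at room temperature, then anti-Myc antibody 2 h and chemiluminescent ELISA substrate. Signal corrected by subtracting FGFR-free wells; binding affinity scored into categories from the dose-response.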

T1 sequence (P21802 22-377, change not shown): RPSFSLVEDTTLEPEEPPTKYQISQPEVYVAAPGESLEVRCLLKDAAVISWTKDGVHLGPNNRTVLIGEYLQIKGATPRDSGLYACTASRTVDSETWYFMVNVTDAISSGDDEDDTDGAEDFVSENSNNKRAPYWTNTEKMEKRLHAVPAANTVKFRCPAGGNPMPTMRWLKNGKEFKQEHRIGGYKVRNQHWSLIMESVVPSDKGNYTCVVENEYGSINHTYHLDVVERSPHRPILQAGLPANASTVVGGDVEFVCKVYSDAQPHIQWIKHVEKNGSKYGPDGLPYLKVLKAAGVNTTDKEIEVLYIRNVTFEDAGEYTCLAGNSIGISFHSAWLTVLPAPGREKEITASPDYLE

ELISA luminescence signal at 10 nmol/L peptide, relative to SEQ ID NO: 47 (=1), 0.5 to 0.7 ratio:
YCEENYLDPEQHQYFIYFK(COCH2)R (thioether 2-19) [cyclic peptide SEQ ID NO: 396], YCHENYLDPEQHQYFIYFK(COCH2)R (thioether 2-19) [cyclic peptide SEQ ID NO: 398], SCIQQNYFWQYVFERYRYK(COCH2)Q (thioether 2-19 (inferred)) [cyclic peptide SEQ ID NO: 46], KCPQNFANPVQWRYFQHYKN (thioether ring (C)-(K(acetyl))) [cyclic peptide SEQ ID NO: 58], QCPQNFINPVQWRYYQHYK(COCH2)N (thioether 2-19 (inferred)) [cyclic peptide SEQ ID NO: 89], KCPQNFINPVQWRAFQHYKN (not fully specified; thioether ring (C)-(K(acetyl))) [cyclic peptide SEQ ID NO: 64], KCPQNAINPVQWRYFQHYKN (thioether ring (C)-(K(acetyl))) [cyclic peptide SEQ ID NO: 57], KCPQNFIAPVQWRYFQHYKN (not fully specified; thioether ring (C)-(K(acetyl))) [cyclic peptide SEQ ID NO: 59], ACEYNYWNQVQFTFLIAFK(COCH2)R (thioether 2-19 (inferred)) [cyclic peptide SEQ ID NO: 44]

ELISA luminescence signal at 10 nmol/L peptide, relative to SEQ ID NO: 47 (=1), 0.1 to 0.5 ratio:
KCPQAFINPVQWRYFQHYKN (thioether ring (C)-(K(acetyl))) [cyclic peptide SEQ ID NO: 56], KCPQNFINPVQARYFQHYKN (not fully specified; thioether ring (C)-(K(acetyl))) [cyclic peptide SEQ ID NO: 62], QCPQNFINPVQWRYFQHVK(COCH2)N (thioether 2-19) [cyclic peptide SEQ ID NO: 91], QCPQNFINPVQWRYRQHYK(COCH2)N (thioether 2-19 (inferred)) [cyclic peptide SEQ ID NO: 90]

ELISA luminescence signal at 10 nmol/L peptide, relative to SEQ ID NO: 47 (=1), ≥ 0.7 ratio:
YCHENYLDPEQYQYFHYFK(COCH2)H (thioether 2-19) [cyclic peptide SEQ ID NO: 395], YCEENYLDPEQHQYFIYFK(COCH2)H (thioether 2-19) [cyclic peptide SEQ ID NO: 397], QCPQNFINPVQWRYFQHYK(COCH2)N (thioether 2-19 (inferred)) [cyclic peptide SEQ ID NO: 80], ICPQNFINPVQWRYFQHYK(COCH2)N (thioether 2-19 (inferred)) [cyclic peptide SEQ ID NO: 74], QCPQNFINPVQWRYFQHFK(COCH2)N (thioether 2-19) [cyclic peptide SEQ ID NO: 92], QCPQNFINPVQWRYLQHYK(COCH2)N (thioether 2-19 (inferred)) [cyclic peptide SEQ ID NO: 88], KCPQNFINAVQWRYFQHYKN (not fully specified; thioether ring (C)-(K(acetyl))) [cyclic peptide SEQ ID NO: 60], GCPQNFINPVQWRYFQHYK(COCH2)N (thioether 2-19 (inferred)) [cyclic peptide SEQ ID NO: 71], WCPQNFINPVQWRYFQHYK(COCH2)N (thioether 2-19 (inferred)) [cyclic peptide SEQ ID NO: 78], KCPQNFINPAQWRYFQHYKN (not fully specified; thioether ring (C)-(K(acetyl))) [cyclic peptide SEQ ID NO: 61], LCPQNFINPVQWRYFQHYK(COCH2)N (thioether 2-19 (inferred)) [cyclic peptide SEQ ID NO: 73], KCPQNFINPVQWRYFAHYKN (not fully specified; thioether ring (C)-(K(acetyl))) [cyclic peptide SEQ ID NO: 65], QCPQNFINPVHWRYFQHYK(COCH2)N (thioether 2-19 (inferred)) [cyclic peptide SEQ ID NO: 87], NCPQNFINPVQWRYFQHYK(COCH2)N (thioether 2-19 (inferred)) [cyclic peptide SEQ ID NO: 79], PCPQNFINPVQWRYFQHYK(COCH2)N (thioether 2-19 (inferred)) [cyclic peptide SEQ ID NO: 72], SCPQNFINPVQWRYFQHYK(COCH2)N (thioether 2-19 (inferred)) [cyclic peptide SEQ ID NO: 81], ECPQNFINPVQWRYFQHYK(COCH2)N (thioether 2-19 (inferred)) [cyclic peptide SEQ ID NO: 84], RCPQNFINPVQWRYFQHYK(COCH2)N (thioether 2-19 (inferred)) [cyclic peptide SEQ ID NO: 85], VCPQNFINPVQWRYFQHYK(COCH2)N (thioether 2-19 (inferred)) [cyclic peptide SEQ ID NO: 75], KCAQNFINPVQWRYFQHYKN (thioether ring (C)-(K(acetyl))) [cyclic peptide SEQ ID NO: 54], TCPQNFINPVQWRYFQHYK(COCH2)N (thioether 2-19 (inferred)) [cyclic peptide SEQ ID NO: 82], KCPQNFINPVQWRYFQAYKN (not fully specified; thioether ring (C)-(K(acetyl))) [cyclic peptide SEQ ID NO: 66], KCPANFINPVQWRYFQHYKN (thioether ring (C)-(K(acetyl))) [cyclic peptide SEQ ID NO: 55], DCPQNFINPVQWRYFQHYK(COCH2)N (thioether 2-19 (inferred)) [cyclic peptide SEQ ID NO: 83], ACPQNFINPVQWRYFQHYK(COCH2)N (thioether 2-19 (inferred)) [cyclic peptide SEQ ID NO: 53], KCPQNFINPVQWRYFQHYKN (thioether ring (C)-(K(acetyl))) [cyclic peptide SEQ ID NO: 47], KCPQNFINPVQWRYFQHYKA (not fully specified; thioether ring (C)-(K(acetyl))) [cyclic peptide SEQ ID NO: 67], KCPQNFINPVQWAYFQHYKN (not fully specified; thioether ring (C)-(K(acetyl))) [cyclic peptide SEQ ID NO: 63], HCPQNFINPVQWRYFQHYK(COCH2)N (thioether 2-19 (inferred)) [cyclic peptide SEQ ID NO: 86], FCPQNFINPVQWRYFQHYK(COCH2)N (thioether 2-19 (inferred)) [cyclic peptide SEQ ID NO: 76], YCPQNFINPVQWRYFQHYK(COCH2)N (thioether 2-19 (inferred)) [cyclic peptide SEQ ID NO: 77], TCPQNFRDELQFTYFTQYK(COCH2)Y (thioether 2-19 (inferred)) [cyclic peptide SEQ ID NO: 45]
